Columns and labels:
[1] = target: human B7-H3-4Ig-His protein (human) (UniProt Q5ZPR3); experiment: ELISA, antigen coated at 1 ug/ml
[2] = target: human B7-H3-4Ig-His protein (human) (UniProt Q5ZPR3); experiment: ELISA, antigen coated at 1 ug/ml (specificity panel)
[3] = target: human B7-H3-4Ig-His protein (human) (UniProt Q5ZPR3); experiment: ELISA, antigen coated at 1 ug/ml; remark: listed apart in the source
[4] = target: monkey B7-H3-4Ig-His protein (monkey); experiment: ELISA, antigen coated at 1 ug/ml
[5] = target: human B7-H3 on human tumor cells (MCF-7, HT29, NCI-N87, HCC1806, HCC827) (human) (UniProt Q5ZPR3); experiment: cell-based or functional assay
[6] = target: human B7-H3-4Ig on CHO-S cells (CHO-S-human B7-H3-4Ig) (human) (UniProt Q5ZPR3); experiment: cell-based or functional assay
Sequence of human B7-H3-4Ig on CHO-S cells (CHO-S-human B7-H3-4Ig) (human) (Q5ZPR3 29-534): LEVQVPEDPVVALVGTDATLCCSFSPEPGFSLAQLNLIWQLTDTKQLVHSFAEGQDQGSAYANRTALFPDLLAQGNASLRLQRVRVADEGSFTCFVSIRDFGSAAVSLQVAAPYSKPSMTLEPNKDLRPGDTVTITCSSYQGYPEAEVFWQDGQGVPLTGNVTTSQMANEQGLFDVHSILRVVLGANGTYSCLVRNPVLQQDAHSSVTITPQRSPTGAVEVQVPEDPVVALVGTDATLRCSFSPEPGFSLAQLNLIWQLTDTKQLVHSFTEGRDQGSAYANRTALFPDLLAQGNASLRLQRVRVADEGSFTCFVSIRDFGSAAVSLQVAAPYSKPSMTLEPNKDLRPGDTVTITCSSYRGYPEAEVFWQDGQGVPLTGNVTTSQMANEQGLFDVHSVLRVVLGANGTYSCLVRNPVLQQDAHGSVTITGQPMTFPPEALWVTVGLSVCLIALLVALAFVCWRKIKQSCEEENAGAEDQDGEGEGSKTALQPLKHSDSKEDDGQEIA

Sequence of human B7-H3-4Ig-His protein (human) (Q5ZPR3 other isoform, or with tags, fused parts or gaps): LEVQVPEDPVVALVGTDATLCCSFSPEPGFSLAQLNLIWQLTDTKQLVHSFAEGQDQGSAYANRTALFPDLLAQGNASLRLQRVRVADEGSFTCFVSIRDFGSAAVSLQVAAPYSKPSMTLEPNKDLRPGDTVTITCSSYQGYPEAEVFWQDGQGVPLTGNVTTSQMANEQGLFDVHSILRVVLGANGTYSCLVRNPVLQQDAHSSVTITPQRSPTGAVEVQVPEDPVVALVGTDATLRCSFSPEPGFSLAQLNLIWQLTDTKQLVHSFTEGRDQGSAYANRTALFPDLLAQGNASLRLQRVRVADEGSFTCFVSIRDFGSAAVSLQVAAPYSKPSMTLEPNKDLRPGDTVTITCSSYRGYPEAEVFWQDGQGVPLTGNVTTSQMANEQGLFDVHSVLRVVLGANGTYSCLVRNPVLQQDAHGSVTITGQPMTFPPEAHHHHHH
Sequence of human B7-H3 on human tumor cells (MCF-7, HT29, NCI-N87, HCC1806, HCC827) (human) (Q5ZPR3 29-534): as the sequence (Q5ZPR3 29-534) above

EC50 [1]: 0.00336 µg/mL | EC50 [2]: 0.00336 µg/mL | EC50 [3]: 0.0138 µg/mL | EC50 [4]: 0.0237 µg/mL | Endocytosis EC50 on HCC827 cells (PHrodo, flow cytometry) [5]: 0.0152 µg/mL | Endocytosis EC50 on HCC1806 cells (PHrodo, flow cytometry) [5]: 0.0572 µg/mL | Endocytosis EC50 on NCI-N87 cells (PHrodo, flow cytometry) [5]: 0.0241 µg/mL | ADCC: EC50 of luciferase signal of Jurkat-NFAT/Luciferase-CD16A effector cells with CHO-S-human B7-H3-4Ig target cells [6]: 0.108 µg/mL
B1: control B7-H3 antibody DS7300 (antibody, INN chains, looked up, V domains shown)
VH: QVQLVQSGAEVKKPGSSVKVSCKASGYTFTNYVMHWVRQAPGQGLEWMGYINPYNDDVKYNEKFKGRVTITADESTSTAYMELSSLRSEDTAVYYCARWGYYGSPLYYFDYWGQGTLVTVSS
VL: EIVLTQSPATLSLSPGERATLSCRASSRLIYMHWYQQKPGQAPRPLIYATSNLASGIPARFSGSGSGTDFTLTISSLEPEDFAVYYCQQWNSNPPTFGQGTKVEIK
